# According to patent publication US20120065367A1, “Radioactively Labeled Substance” (priority 2009, published 2012):
# Columns and labels:
# [1] = design: species or system ddY-strain male mice; details: mouse
# Protocol: 100 μL (about 1 μCi) of unpurified ^99mTc-(D-Pen-N-hexanoate-cRGDfK)2 or ^99mTc-(D-Pen-N-hexanoate-cRGDfK)2 purified by RP-HPLC was administered to the tail veins of ddY-strain male mice at 6 weeks of age (three mice for each group). The mice were sacrificed 10 minutes, 1, 3, and 6 hours after the administration, and blood samples were collected. The mice were anatomized, and the weight and radioactivity of each organ were measured. The radioactivity in urine and feces excreted by 6 hours after the administration was also measured.
# [2] = tested on: Human glioma cell line, U87MG cells; assay: Accumulation of radiolabeled drug in tumor and organ of tumor-bearing mice; type: in vivo, Balb/c-nu/nu mice; details: for Ratio of accumulation in tumor to that in tissue: Tumor/Blood / Ratio of accumulation in tumor to that in tissue: Tumor/Intestine / Ratio of accumulation in tumor to that in tissue: Tumor/Liver: 1 hour after administration; for Accumulated amount in tissue: Blood / Accumulated amount in tissue: Intestine / Accumulated amount in tissue: Kidney / Accumulated amount in tissue: Liver / Accumulated amount in tissue: Lung / Accumulated amount in tissue: Stomach / Accumulated amount in tissue: Tumor: 1 hour after tail vein administration
# Protocol: Human glioma cell line, U87MG cells at 5×10^6 cells/mouse were administered subcutaneously in the left femur of Balb/c-nu/nu mice at 4 weeks of age. The mice bearing the tumor of 0.5 g in size were used for a body distribution experiment.
# A ^99mTc-GH solution with [GH]=4.0 mg/mL was obtained by adding 750 μL (1.58 μCi) of a solution of Na[^99mTcO4] in saline eluted from a ^99Mo/^99mTc generator to a lyophilized GH kit (3.0 mg) including α-D-glucoheptonic acid and stannous chloride to perform a reaction at room temperature for 20 minutes. Further, a 2 mM ligand solution was separately prepared by dissolving D-Pen-Hx-cRGDfK (0.8 mg, […]) in 471 μL of 0.1 M Tris hydrochloride buffer (pH 9.0) purged with nitrogen. 140 μL of the ^99mTc-GH solution was added to 140 μL of the ligand solution, they were sufficiently mixed, and then subjected to a reaction at 40° C. for 40 minutes. The reaction solution was diluted to 40-fold with saline so that [Free ligand]=0.025 mM to use as the unpurified sample to be administered.
# A ^99mTc-GH solution with [GH]=4.0 mg/mL was obtained by adding 500 μL (970 μCi) of a solution of Na[^99mTcO4] in saline eluted from a ^99Mo/^99mTc generator to a lyophilized GH kit (2.0 mg) including α-D-glucoheptonic acid and stannous chloride to perform a reaction at room temperature for 20 minutes. Further, a 2 mM ligand solution was separately prepared by dissolving TMEC-[N-hexanoate-c(Arg-Gly-Asp-D-Phe-Lys)]2 (hereinafter, sometimes abbreviated as TMEC-RGD2) (0.7 mg, 0.406 μmol) in 200 μL of 0.1 M acetate buffer (pH 3.5) purged with nitrogen. 200 μL of the ^99mTc-GH solution was added to 200 μL of the ligand solution, they were sufficiently mixed, and then subjected to a reaction at 80° C. for one hour. A half amount of the reaction solution (200 μL) was applied to RP-HPLC (mobile phase: A=10 mM phosphate buffer (pH 6.0), B=MeOH; gradient system: 0 to 18 minutes: B=0 to 60%, 18 to 26 minutes: B=60 to 100%, 26 to 31 minutes: B=100%), a fraction eluted at 24 minutes was collected, the organic solvent was distilled off under reduced pressure, and then the residue was diluted with 10% ethanol/saline to use as the purified sample. Further, the other half amount of the reaction solution (200 μL) was diluted to 40-fold with saline so that [Free ligand]=0.025 mM to use as the unpurified sample to be administered.
# 100 μL of the unpurified ^99mTC-(D-Pen-Hx-cRDGfK)2 sample (about 1.1 μCi) was administered to the tail veins of tumor-bearing Balb/c-nu/nu male mice at 10 weeks of age. There were 5 mice in one group. The mice were sacrificed by beheading 1 hour after the administration. Blood, organs of interest, and the tumor were removed, and the weight of and the radioactivity in each organ were measured.
# 100 μL of the purified or unpurified ^99mTc-TMEC-RGD2 sample (about 0.5 μCi) was administered to the tail veins of tumor-bearing Balb/c-nu/nu male mice at 10 weeks of age. There were 4 mice in one group. The mice were sacrificed by beheading 1 hour after the administration. Blood, organs of interest, and the tumor were removed, and the weight of and the radioactivity in each organ were measured.
# [3] = Stability of 99mTc complex in buffer; type: physicochemical; details: 0.01 M phosphate buffer (pH 6.0), room temperature, after 1, 3, 6, and 24 hours
# Protocol: 11. Examination of Stability
# Each ^99mTc-labeled compound was purified by RP-HPLC (method 1 or method 2), and then the solvent was distilled off under reduced pressure. The residue was redissolved in 400 μL of 0.01 M phosphate buffer (pH 6.0). This solution was stored at room temperature, and after 1, 3, 6, and 24 hours, its radiochemical purity was analyzed by CAE or RP-HPLC.
# [4] = administered after removing the excessive ligand by HPLC
# [5] = administered without removing the excessive ligand
substance,measurement,setting,value
^99mTc-(D-Pen-N-hexanoate-cRGDfK)2 [^99mTc-(Pen-RGD)2],Stability in vivo,[1],stable in vivo
same,"Ratio accumulated in the tumor to that in each tissue, compared with purified 99mTc-TMEC-RGD2","[2]; mouse, in vivo",equivalence to or higher than
^99mTc-(D-penicillamine)2 [^99mTc-(D-Pen)2],Stability in a buffer (radiochemical purity),[3],higher stability
^99mTc-TMEC-[N-hexanoate-c(Arg-Gly-Asp-D-Phe-Lys)]2 [^99mTc-TMEC-RGD2],Ratio of accumulation in tumor to that in tissue: Tumor/Blood,[2]; [4],4.91 (1.07)
same,Ratio of accumulation in tumor to that in tissue: Tumor/Intestine,[2]; [4],0.54 (0.10)
same,Ratio of accumulation in tumor to that in tissue: Tumor/Liver,[2]; [4],0.65 (0.14)
same,Accumulated amount in tissue: Blood,[2]; [4],0.72 (0.02) % injected dose/gram tissue
same,Accumulated amount in tissue: Intestine,[2]; [4],6.70 (0.75) % injected dose/gram tissue
same,Accumulated amount in tissue: Kidney,[2]; [4],16.68 (3.87) % injected dose/gram tissue
same,Accumulated amount in tissue: Liver,[2]; [4],5.47 (0.41) % injected dose/gram tissue
same,Accumulated amount in tissue: Lung,[2]; [4],2.33 (0.31) % injected dose/gram tissue
same,Accumulated amount in tissue: Stomach,[2]; [4],1.20 (0.16) % injected dose
same,Accumulated amount in tissue: Tumor,[2]; [4],increased
same,Accumulated amount in tissue: Tumor,"[2]; administered after removing the excessive ligand by HPLC, listed as 99mTC-TMEC-RGD2",3.54 (0.72) % injected dose/gram tissue
same,Ratio of accumulation in tumor to that in tissue: Tumor/Blood,[2]; [5],3.41 (1.55)
same,Ratio of accumulation in tumor to that in tissue: Tumor/Intestine,[2]; [5],0.37 (0.13)
same,Ratio of accumulation in tumor to that in tissue: Tumor/Liver,[2]; [5],0.67 (0.31)
same,Accumulated amount in tissue: Blood,[2]; [5],0.86 (0.33) % injected dose/gram tissue
same,Accumulated amount in tissue: Intestine,[2]; [5],7.42 (1.95) % injected dose/gram tissue
same,Accumulated amount in tissue: Kidney,[2]; [5],26.82 (8.71) % injected dose/gram tissue
same,Accumulated amount in tissue: Liver,[2]; [5],4.57 (2.10) % injected dose/gram tissue
same,Accumulated amount in tissue: Lung,[2]; [5],2.38 (0.57) % injected dose/gram tissue
same,Accumulated amount in tissue: Stomach,[2]; [5],0.79 (0.30) % injected dose
